From patent publication US20250361320A1

Molecular target: human CEACAM5 on cells (MKN45, BxPC-3, Ls174T, HCT116-huCEACAM5) (human) (UniProt P06731)
Test: flow cytometry on BxPC-3 cells (medium, 60,000 receptors/cell)

Sequence of human CEACAM5 on cells (MKN45, BxPC-3, Ls174T, HCT116-huCEACAM5) (human) (P06731 35-685 T210S limits assumed): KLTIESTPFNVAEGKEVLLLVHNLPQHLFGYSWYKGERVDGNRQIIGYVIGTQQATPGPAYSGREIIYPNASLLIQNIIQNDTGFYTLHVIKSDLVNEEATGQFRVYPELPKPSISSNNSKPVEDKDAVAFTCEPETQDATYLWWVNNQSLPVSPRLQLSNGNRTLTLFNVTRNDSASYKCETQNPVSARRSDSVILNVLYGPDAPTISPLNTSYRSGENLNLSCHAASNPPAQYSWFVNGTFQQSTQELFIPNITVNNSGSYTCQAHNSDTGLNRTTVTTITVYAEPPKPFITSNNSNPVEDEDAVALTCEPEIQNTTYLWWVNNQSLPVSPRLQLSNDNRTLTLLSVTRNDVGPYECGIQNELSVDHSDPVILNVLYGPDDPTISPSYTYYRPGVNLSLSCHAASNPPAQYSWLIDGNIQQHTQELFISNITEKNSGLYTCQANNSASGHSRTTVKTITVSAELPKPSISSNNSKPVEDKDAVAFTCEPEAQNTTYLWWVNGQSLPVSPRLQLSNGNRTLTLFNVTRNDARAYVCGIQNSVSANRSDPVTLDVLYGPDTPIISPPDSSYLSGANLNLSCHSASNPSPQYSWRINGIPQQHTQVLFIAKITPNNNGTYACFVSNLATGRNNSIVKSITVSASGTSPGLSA

- EC50 (read off the curve): 8 nM
Substance: mAb Control 3 (antibody)
